Among the data in article PMC7305164 are stoichiometry N values, retold here.

For the experiment, the target named is Sso7d(W24A/R43E)-HTLV-1 IN(E156Q) (HTLV-1). Briefly: cryo-EM structure; SEC-purified HTLV-1 intasome (strand-transfer complex) of Sso7d-IN(E156Q), B56γ(11–380) and branched viral U5 LTR/target DNA; 3.7 Å, C2 symmetry imposed.

With “Sso7d(W24A/R43E)-HTLV-1 IN(E156Q) (enzyme)”, the stoichiometry N came to 4.
